In article PMC9352346 (2022):

B1: Arl15-AL-Myc [human] / GST-Smad4 [not stated] (parent complex)
chain 1: MSDLRITEAFLYMDYLCFRALCCKGPPPARPEYDLVCIGLTGSGKTSLLSKLCSESPDNVVSTTGFSIKAVPFQNAILNVKELGGLDNIRKYWSRYYQGSQGVIFVLDSASSEDDLEAARNELHSALQHPQLCTLPFLILANHQDKPAARSVQEIKKYFELEPLARGKRWILQPCSLDDMDALKDSFSQLINLLEEKDHEAVRM
chain 2: MDNMSITNTPTSNDACLSIVHSLMCHRQGGESETFAKRAIESLVKKLKEKKDELDSLITAITTNGAHPSKCVTIQRTLDGRLQVAGRKGFPHVIYARLWRWPDLHKNELKHVKYCQYAFDLKCDSVCVNPYHYERVVSPGIDLSGLTLQSNAPSSMMVKDEYVHDFEGQPSLSTEGHSIQTIQHPPSNRASTETYSTPALLAPSESNATSTANFPNIPVASTSQPASILGGSHSEGLLQIASGPQPGQQQNGFTGQPATYHHNSTTTWTGSRTAPYTPNLPHHQNGHLQHHPPMPPHPGHYWPVHNELAFQPPISNHPAPEYWCSIAYFEMDVQVGETFKVPSSCPIVTVDGYVDPSGGDRFCLGQLSNVHRTEAIERARLHIGKGVQLECKGEGDVWVRCLSDHAVFVQSYYLDREAGRAPGDAVHKIYPSAYIKVFDLRQCHRQMQQQAATAQAAAAAQAAAVAGNIPGPGSVGGIAPAISLSAAAGIGVDDLRRLCILRMSFVKGWGPDYPRQSIKETPCWIEIHLHRALQLLDEVLHTMPIADPQPLD
B2: GFP-Smad4-WT [not stated] / GST-Arl15-AL [human] (parent complex)
chain 1: B1 chain 2
chain 2: B1 chain 1

Variants of: B1
Assay: GST pull-down, immunoblot band quantification; HeLa cell lysates; bead-immobilized GST-Smad4; parent: 100
chain 1 R150H was tested, and the percent of parent was 87. chain 1 D58N showed a percent of parent of 93.

Variants of: B2
Assay: GST pull-down, immunoblot band quantification; HEK293T cell lysates; bead-immobilized GST-Arl15-AL; n=3; parent: 1; read off a plot
chain 1 R496H gave a ratio to parent of roughly 1.1. chain 1 H541Y gave a ratio to parent of roughly 0.37. chain 1 A532D was tested, and the ratio to parent was roughly 0.2. With chain 1 E538K the ratio to parent was roughly 0.29. In the case of chain 1 R497H, the ratio to parent is reported as roughly 1. chain 1 M447K showed a ratio to parent of roughly 1.1. chain 1 L495P was tested, and the ratio to parent was roughly 1.3. chain 1 D493H was tested, and the ratio to parent was roughly 0.9.
